One may read the EC50 as the midpoint of the concentration-response curve. The low end stands for an effect from little substance, the high end for a need for much substance.

Data on 14 molecules can be found in patent US20230095569A1 (published 2023).

The target in test [1] is SNU620 cells (UniProt P56856 1-261). Briefly: FACS cell binding; SNU620 cells.
Test [2] addresses GAXC031 cells (UniProt P56856 1-261). Briefly: FACS cell binding; GAXC031 cells.
For test [3], the target named is T1, human Claudin18.2 (CLDN18.2) (UniProt P56856 1-261). Briefly: FACS cell binding; GAXC031 cells.
For test [4], the target named is T1, human Claudin18.2 (CLDN18.2). Briefly: FACS cell binding; KATO III cells.
For test [5] the target is unchanged. Put plainly: FACS cell binding; SNU620 cells.

B1: IMB362 (antibody, V domains shown)
VH: QVQLQQPGAELVRPGASVKLSCKASGYTFTSYWINWVKQRPGQGLEWIGNIYPSDSYTNYNQKFKDKATLTVDKSSSTAYMQLSSPTSEDSAVYYCTRSWRGNSFDYWGQGTTLTVSS
VL: DIVMTQSPSSLTVTAGEKVTMSCKSSQSLLNSGNQKNYLTWYQQKPGQPPKLLIYWASTRESGVPDRFTGSGSGTDFTLTISSVQAEDLAVYYCQNDYSYPFTFGSGTKLEIKR
With B1, the EC50 in test [1] is ~7540 nM.

B2: IMAB362 (antibody, V domains shown)
VH: QVQLQQPGAELVRPGASVKLSCKASGYTFTSYWINWVKQRPGQGLEWIGNIYPSDSYTNYNQKFKDKATLTVDKSSSTAYMQLSSPTSEDSAVYYCTRSWRGNSFDYWGQGTTLTVSS
VL: DIVMTQSPSSLTVTAGEKVTMSCKSSQSLLNSGNQKNYLTWYQQKPGQPPKLLIYWASTRESGVPDRFTGSGSGTDFTLTISSVQAEDLAVYYCQNDYSYPFTFGSGTKLEIKR
With B2, in test [2], a half-maximal effect (EC50) was put at 452 nM.

B3: humanized Ab15 (VHN1×VL2) (antibody, V domains shown)
VH: EVMLVESGGGLVQPGGSLRLSCAASGFTFSTYTMSWVRQTPGKRLEWVATIVGGGGYTYYLDSVKGRFTISRDNSKNTLYLQMNSLRAEDTAVYYCARMGLTQRNALDYWGQGTSITVSS
VL: DIVMTQSPLSLPVTPGEPASISCKSSQSLFNSGNQKNYLAWYLQKPGQPPKLLIYGASTRESGVPDRFTGSGFGTDFTLKISRVEAEDVGVYYCQNDHTYPLTFGAGTKLEIK
Molecule B3 came in with an EC50 in test [3] of 32.2 nM.

B4: Ab10 (antibody, V domains shown)
VH: EVMLVESGGGLVKPGGSLKLSCAASGFTFSSYTMSWVRQTPEKRLEWVATISVIGGNTYYVDSVKGRFTISRDKAKNTLYLQMSSLRSEDTALYYCARLGQTQRNAMDYWGQGTSVTVSS
VL: DIVMTQSPSSLSVSAGEKVTMSCKSSQSLLNSGNQKNYLAWYQQKPGQPPKLLIYGASTRESGVPDRFTGSGSGTDFTLTISSVQAEDLAVYYCQNDYSYPLTFGAGTKLELK
Turning to B4, the EC50 worked out at 20.9 nM in test [4] and 5.54 nM in test [5].

B5: Ab17 (antibody, V domains shown)
VH: QVQLKESGPGLVAPSQSLSITCTVSGFSLTSYAISWVRQPPGKGLEWLGEIWTGGGTNYNSALKSRLSISKDNSKSQVFLKMNSLQTDDTARYYCGRLSYGNSLDYWGQGTTLTVSS
VL: DIVMTQSPSSLTVTAGEKVTMSCKSSQSLLNSGNQKNYLTWYQQKPGQPPKLLIYWASTRESGVPDRFTGSGSGTDFTLTVSSVQAEDLAVYYCQNNFIYPLTFGPGTKLELK
On to B5, for which the EC50 was 39.3 nM in test [4] and 10.8 nM in test [5].

B6: chAb17 (antibody, V domains shown)
VH: QVQLKESGPGLVAPSQSLSITCTVSGFSLTSYAISWVRQPPGKGLEWLGEIWTGGGTNYNSALKSRLSISKDNSKSQVFLKMNSLQTDDTARYYCGRLSYGNSLDYWGQGTTLTVSS
VL: DIVMTQSPSSLTVTAGEKVTMSCKSSQSLLNSGNQKNYLTWYQQKPGQPPKLLIYWASTRESGVPDRFTGSGSGTDFTLTVSSVQAEDLAVYYCQNNFIYPLTFGPGTKLELK
Turning to B6, in test [3], the EC50 amounted to 47 nM.

B7: chAb10 (antibody, V domains shown)
VH: EVMLVESGGGLVKPGGSLKLSCAASGFTFSSYTMSWVRQTPEKRLEWVATISVIGGNTYYVDSVKGRFTISRDKAKNTLYLQMSSLRSEDTALYYCARLGQTQRNAMDYWGQGTSVTVSS
VL: DIVMTQSPSSLSVSAGEKVTMSCKSSQSLLNSGNQKNYLAWYQQKPGQPPKLLIYGASTRESGVPDRFTGSGSGTDFTLTISSVQAEDLAVYYCQNDYSYPLTFGAGTKLELK
For the molecule B7, the EC50 in test [3] was 49.2 nM.

B8: Ab15 (antibody, V domains shown)
VH: EVMLVESGGDLVKPGGSLKLSCAASGFTFSTYTMSWVRQTPEKRLEWVATIVGGGGYTYYLDSVKGRFTISRDNAKNTLYLQMISLRSEDTALYYCARMGLTQRNALDYWGQGTSITVSS
VL: DIVMTQSPSSLSVSEGEKVTLNCKSSQSLFNSGNQKNYLAWYQQKPGQPPKLLIYGASTRESGVPDRFTGSGFGTDFTLTISSVQAEDLAVYYCQNDHTYPLTFGAGAKLELK
On to B8, for which the EC50 in test [4] is 27.2 nM; in test [5] it was 5.32 nM.

B9: chAb15 (antibody, V domains shown)
VH: EVMLVESGGDLVKPGGSLKLSCAASGFTFSTYTMSWVRQTPEKRLEWVATIVGGGGYTYYLDSVKGRFTISRDNAKNTLYLQMISLRSEDTALYYCARMGLTQRNALDYWGQGTSITVSS
VL: DIVMTQSPSSLSVSEGEKVTLNCKSSQSLFNSGNQKNYLAWYQQKPGQPPKLLIYGASTRESGVPDRFTGSGFGTDFTLTISSVQAEDLAVYYCQNDHTYPLTFGAGAKLELK
In test [3], B9 displayed an EC50 of 25.1 nM.

B10: humanized Ab17 (VH5×VLN1) (antibody, V domains shown)
VH: QVQLQESGPGLVKPSQTLSLTCTVSGFSLTSYAISWVRQPAGKGLEWLGEIWTGGGTNYNSALKSRVSISKDNSKSQVFLKLSSVTAADTARYYCGRLSYGNSLDYWGQGTLVTVSS
VL: DIVMTQSPDSTTVLLGERATINCKSSQSLLNSGNQKNYLAWYQQKPGQPPKLLIYWASTRESGVPDRFSGSGSGTDFTLTISSLQAEDVAVYYCQNNFIYPLTFGPGTKLEIK
B10: it took 48.9 nM to reach a half-maximal effect in test [3] (EC50).

B11: humanized Ab15 (VH3×VLN1) (antibody, V domains shown)
VH: EVMLVESGGGVVQPGGSLRLSCAASGFTFSTYTMSWVRQTPEKRLEWVATIVGGGGYTYYLDSVKGRFTISRDNAKNTLYLQMNSLRTEDTALYYCARMGLTQRNALDYWGQGTLITVSS
VL: DIVMTQSPDSLAVSLGERATINCKSSQSLFNSGNQKNYLAWYQQKPGQPPKLLIYGASTRESGVPDRFSGSGFGTDFTLTISSLQAEDVAVYYCQNDHTYPLTFGAGTKLEIK
In the case of B11, it took 28.6 nM to reach a half-maximal effect in test [3] (EC50).

B12: humanized Ab10 (VH3×VLN1) (antibody, V domains shown)
VH: EVQLVESGGGLVQPGGSLRLSCAASGFTFSSYTMSWVRQAPEKRLEWVATISVIGGNTYYVDSVKGRFTISRDKAKNTLYLQMNSLRAEDTALYYCARLGQTQRNAMDYWGQGTLVTVSS
VL: DIVMTQSPDSLAVSAGERATMNCKSSQSLLNSGNQKNYLAWYQQKPGQPPKLLIYGASTRESGVPDRFSGSGSGTDFTLTISSLQAEDVAVYYCQNDYSYPLTFGAGTKLEIK
Consider B12, for which the EC50 in test [3] worked out at 60.9 nM.

B13: humanized Ab17 (VH1×VLN1) (antibody, V domains shown)
VH: QVQLKESGPGLVKPSETLSLTCTVSGFSLTSYAISWVRQPPGKGLEWLGEIWTGGGTNYNSALKSRVSISKDNSKSQVFLKLSSVQAADTARYYCGRLSYGNSLDYWGQGTLVTVSS
VL: DIVMTQSPDSTTVLLGERATINCKSSQSLLNSGNQKNYLAWYQQKPGQPPKLLIYWASTRESGVPDRFSGSGSGTDFTLTISSLQAEDVAVYYCQNNFIYPLTFGPGTKLEIK
B13 came in with an EC50 in test [3] of 43.7 nM.

B14: humanized Ab10 (VHN1×VLN1) (antibody, V domains shown)
VH: EVMLVESGGGLVQPGGSLRLSCAASGFTFSSYTMSWVRQTPGKRLEWVATISVIGGNTYYVDSVKGRFTISRDKSKNTLYLQMNSLRAEDTAVYYCARLGQTQRNAMDYWGQGTLVTVSS
VL: DIVMTQSPDSLAVSAGERATMNCKSSQSLLNSGNQKNYLAWYQQKPGQPPKLLIYGASTRESGVPDRFSGSGSGTDFTLTISSLQAEDVAVYYCQNDYSYPLTFGAGTKLEIK
For the molecule B14, the EC50 in test [3] worked out at 43.8 nM.
